Reference: patent publication US12072338B2, “Pharmaceutical peptides for the treatment of inflammatory diseases” (PROTAGONISTS LTD., priority 2007, dated 2024)

Key:
IL-8 = assay: Micro-array analysis of chemokine binding peptides: IL-8; conditions: limit = start of the upper 75% of that peptide's response range
Method: (§1) (1) Printing: Chemokine (CK) solution (in water) was serially diluted with Print Reagent (GenTel BioSurfaces USA) to final concentrations of 50 μg and 25 μg/ml. BSA/BSA-Biotin control solutions (in water) were diluted with Print Reagent to 100 μg/ml. Amplified stock of M13 phage control (M13KEgIII Cloning Vector, New England Biolabs, Cat.No.E8101S) was stored in Tris Buffered Saline (TBS; pH7.5, 4° C.) and diluted with Print Reagent to the working titre (10^8 pfu/μl). An automated spotting robot (16 pin print tool, 0.4 mm head; BioRobotics, UK) was used to print the CK/BSA control/M13 control, 5 repeats per sample (CK 25 μg/ml and 50 μg/ml; BSA 100 μg/ml; M13 20 μl), on PATH Protein Microarray Slides (GenTel, Prod.No. 2-1005/-1025) at […], and 50-70% relative humidity. Printed micro-array slides were stored at Room Temperature (RT) or 4° C. for at least 24 h before use.
(§2) (2) Blocking: Block Buffer (500 μl/partition; PATHblock, GenTel, Prod.No. 2-1014) was applied to the slide for 1 hour at room temp (RT). After removal of Block Buffer, the slide was air dried for 25 minutes;
(§3) (3) Phage Presented Peptide Binding: Amplified recombinant phage stock was stored in TBS and diluted with Wash Buffer to working titer (10^7 pfu/μl). Recombinant phage suspension (300 μl) was applied per partition and incubated at RT for 1 hour with gentle agitation.
(§4) (4) First Washing: The slides were washed twice with Wash Buffer 300 μl/partition).
(§5) (5) Primary Antibody (Ab) Labeling: The slides were incubated with the Primary Ab (1 mg/ml diluted ×2500 (Wash Reagent), 300 μl; Mouse Anti-M13 monoclonal Ab; Amersham Biosciences, UK; Product Code 27-9420-01) for 45 minutes at RT.
(§6) (6) Second Washing: The slides were washed twice with Wash Buffer (300 μl/partition).
(§7) (7) Secondary Ab Labeling: The slides were incubated with Secondary Ab (1.5 mg/ml diluted ×5000 (Wash Reagent), 300 μl; Cy3-conjugated AffiniPure Goat Anti-Mouse IgG; Jackson ImmunoReserch Labs, USA; Product Code 115-165-062).
(§8) (8) Third Washing: The slides were washed twice with Wash Buffer (300 μl/partition).
(§9) (9) Rinse: the slides were rinsed twice with Rinse Buffer (PATHrinse, GenTel, Prod.No. 2-1018) then dried well.
(§10) (10) Scanning: The peptide-bound, labeled slide was scanned (Laser Intensity 80%, Gain 80%, Resolution 10 μm) with a ScanArray Life Scanner (Packard BioChip Technologies, USA).
(§11) (11) Analysis: Quantitative analysis of micro-array was performed by the SpotReader program of Niles Scientific (USA) and presented as Relative Fluorescence (RF) as a function of CK concentration. Micro-array readout (Cy3 fluorescence) was quantified to determine the relative binding affinities of a CBP for the CKs and by inference, the specificity of the CBP for binding to a CK.

Mig = target: T1, Mig (Homo sapiens, UniProt Q07325); assay: Micro-array analysis of chemokine binding peptides: Mig; conditions: limit = start of the upper 75% of that peptide's response range
T1 construct: purchased 300-26
T1 sequence (Q07325 23-125): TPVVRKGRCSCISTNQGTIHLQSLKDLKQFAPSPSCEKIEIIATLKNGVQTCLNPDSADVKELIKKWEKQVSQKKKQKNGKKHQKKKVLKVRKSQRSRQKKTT
Method: as §1, §2, §3, §4, §5, §6, §7, §8, §9, §10, §11

IP-10 = target: T2, IP-10 (Homo sapiens, UniProt P02778); assay: Micro-array analysis of chemokine binding peptides: IP-10; conditions: limit = start of the upper 75% of that peptide's response range
T2 construct: purchased 300-12
T2 sequence (P02778 22-98): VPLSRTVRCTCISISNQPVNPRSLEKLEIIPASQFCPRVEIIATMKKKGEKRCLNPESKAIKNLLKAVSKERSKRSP
Method: as §1, §2, §3, §4, §5, §6, §7, §8, §9, §10, §11

I-TAC = target: T3, I-TAC (Homo sapiens, UniProt O14625); assay: Micro-array analysis of chemokine binding peptides: I-TAC; conditions: limit = start of the upper 75% of that peptide's response range
T3 construct: purchased 300-46
T3 sequence (O14625 22-94): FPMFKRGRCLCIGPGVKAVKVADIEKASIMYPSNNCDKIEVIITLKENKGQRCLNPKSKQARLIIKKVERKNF
Method: as §1, §2, §3, §4, §5, §6, §7, §8, §9, §10, §11

I-309 = target: T4, I-309 (Homo sapiens, UniProt P22362); assay: Micro-array analysis of chemokine binding peptides: I-309; conditions: limit = start of the upper 75% of that peptide's response range
T4 construct: purchased 300-37
T4 sequence (P22362 24-96): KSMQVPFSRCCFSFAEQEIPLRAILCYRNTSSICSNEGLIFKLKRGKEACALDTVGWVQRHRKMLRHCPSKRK
Method: as §1, §2, §3, §4, §5, §6, §7, §8, §9, §10, §11

MCP-2 = target: T5, MCP-2 (Homo sapiens, UniProt P80075); assay: Micro-array analysis of chemokine binding peptides: MCP-2; conditions: limit = start of the upper 75% of that peptide's response range
T5 construct: purchased 300-15
T5 sequence (P80075 24-99): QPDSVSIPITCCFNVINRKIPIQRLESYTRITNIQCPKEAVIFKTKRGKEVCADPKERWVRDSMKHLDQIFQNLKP
Method: as §1, §2, §3, §4, §5, §6, §7, §8, §9, §10, §11

MCP-4 = target: T6, MCP-4 (Homo sapiens, UniProt Q99616); assay: Micro-array analysis of chemokine binding peptides: MCP-4; conditions: limit = start of the upper 75% of that peptide's response range
T6 construct: purchased 300-24
Method: as §1, §2, §3, §4, §5, §6, §7, §8, §9, §10, §11

Eotaxin = target: T7, Eotaxin (Homo sapiens, UniProt P51671); assay: Micro-array analysis of chemokine binding peptides: Eotaxin; conditions: limit = start of the upper 75% of that peptide's response range
T7 construct: purchased 300-21
Method: as §1, §2, §3, §4, §5, §6, §7, §8, §9, §10, §11

Eotaxin 3 = target: T8, Eotaxin 3 (Homo sapiens, UniProt Q9Y258); assay: Micro-array analysis of chemokine binding peptides: Eotaxin 3; conditions: limit = start of the upper 75% of that peptide's response range
T8 construct: purchased 300-48
T8 sequence (Q9Y258 24-94): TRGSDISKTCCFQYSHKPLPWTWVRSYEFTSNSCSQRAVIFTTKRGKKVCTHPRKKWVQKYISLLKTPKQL
Method: as §1, §2, §3, §4, §5, §6, §7, §8, §9, §10, §11

BCA-1 = target: T9, BCA-1 (Homo sapiens, UniProt O43927); assay: Micro-array analysis of chemokine binding peptides: BCA-1
T9 construct: purchased 300-47
T9 sequence (O43927 23-109): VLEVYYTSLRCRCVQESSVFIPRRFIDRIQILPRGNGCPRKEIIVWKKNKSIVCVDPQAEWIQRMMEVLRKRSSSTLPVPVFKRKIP
Method: as §1, §2, §3, §4, §5, §6, §7, §8, §9, §10, §11

TECK = target: T10, TECK (Homo sapiens, UniProt O15444); assay: Micro-array analysis of chemokine binding peptides: TECK
T10 construct: purchased 300-45
T10 sequence (O15444 24-150): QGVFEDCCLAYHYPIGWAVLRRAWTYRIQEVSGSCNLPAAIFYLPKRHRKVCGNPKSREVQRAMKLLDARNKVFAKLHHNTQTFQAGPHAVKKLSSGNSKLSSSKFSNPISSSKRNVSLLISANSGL
Method: as §1, §2, §3, §4, §5, §6, §7, §8, §9, §10, §11

Fractalkine = target: T11, Fractalkine (Homo sapiens, UniProt P78423); assay: Micro-array analysis of chemokine binding peptides: Fractalkine
T11 construct: purchased 300-31
T11 sequence (P78423 25-100 limits assumed): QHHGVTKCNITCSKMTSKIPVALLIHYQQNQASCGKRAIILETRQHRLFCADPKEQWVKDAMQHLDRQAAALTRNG
Method: as §1, §2, §3, §4, §5, §6, §7, §8, §9, §10, §11

Lymphotactin = target: T12, Lymphotactin (Homo sapiens, UniProt P47992); assay: Micro-array analysis of chemokine binding peptides: Lymphotactin
T12 construct: purchased 300-20
T12 sequence (P47992 22-114): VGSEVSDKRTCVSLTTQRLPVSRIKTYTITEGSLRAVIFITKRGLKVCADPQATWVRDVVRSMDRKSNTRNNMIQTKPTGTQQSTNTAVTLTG
Method: as §1, §2, §3, §4, §5, §6, §7, §8, §9, §10, §11

SDF1 = assay: Micro-array analysis of chemokine binding peptides: SDF1 (isoform not given)
Method: as §1, §2, §3, §4, §5, §6, §7, §8, §9, §10, §11

Chain of SDF1 (P48061 22-89 limits assumed): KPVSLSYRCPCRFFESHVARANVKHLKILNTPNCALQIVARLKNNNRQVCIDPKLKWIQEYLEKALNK
T6 sequence (Q99616 17-98): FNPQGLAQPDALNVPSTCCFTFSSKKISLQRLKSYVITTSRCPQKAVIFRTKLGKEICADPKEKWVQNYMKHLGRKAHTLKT
Chain of IL-8 (P10145 28-99 limits assumed): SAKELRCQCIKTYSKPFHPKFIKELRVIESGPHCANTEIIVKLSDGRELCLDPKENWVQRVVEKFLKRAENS

- binding to IL-8 with relatively high affinity (Relative Fluorescence Units) (IL-8): > 15,000 RFU
- binding to Mig with relatively high affinity (Relative Fluorescence Units) (Mig): > 15,000 RFU
- binding to IP-10 with relatively high affinity (Relative Fluorescence Units) (IP-10): > 15,000 RFU
- binding to I-TAC with relatively high affinity (Relative Fluorescence Units) (I-TAC): > 15,000 RFU
- binding to I-309 with relatively high affinity (Relative Fluorescence Units) (I-309): > 15,000 RFU
- binding to MCP-2 with relatively high affinity (Relative Fluorescence Units) (MCP-2): > 15,000 RFU
- binding to MCP-4 with relatively high affinity (Relative Fluorescence Units) (MCP-4): > 15,000 RFU
- binding to Eotaxin with relatively high affinity (Relative Fluorescence Units) (Eotaxin): > 15,000 RFU
- binding to Eotaxin 3 with relatively high affinity (Relative Fluorescence Units) (Eotaxin 3): > 15,000 RFU
- binding to BCA-1, stated in words (BCA-1): bound
- binding to TECK, stated in words (TECK): bound
- binding to Fractalkine, stated in words (Fractalkine): bound
- binding to Lymphotactin, stated in words (Lymphotactin): bound
- binding to SDF1 (isoform not given), stated in words (SDF1): bound
Substance: WVFG (listed as Homo sapiens) [Ph-p8.4]
